Laboratory results reported in patent US20240150417A1.

target: human transferrin receptor (human) (UniProt P02786); experiment: MST (Monolith NT.115), dye-labelled protein, receptor titrated
Sequence (P02786 89-760 limits assumed): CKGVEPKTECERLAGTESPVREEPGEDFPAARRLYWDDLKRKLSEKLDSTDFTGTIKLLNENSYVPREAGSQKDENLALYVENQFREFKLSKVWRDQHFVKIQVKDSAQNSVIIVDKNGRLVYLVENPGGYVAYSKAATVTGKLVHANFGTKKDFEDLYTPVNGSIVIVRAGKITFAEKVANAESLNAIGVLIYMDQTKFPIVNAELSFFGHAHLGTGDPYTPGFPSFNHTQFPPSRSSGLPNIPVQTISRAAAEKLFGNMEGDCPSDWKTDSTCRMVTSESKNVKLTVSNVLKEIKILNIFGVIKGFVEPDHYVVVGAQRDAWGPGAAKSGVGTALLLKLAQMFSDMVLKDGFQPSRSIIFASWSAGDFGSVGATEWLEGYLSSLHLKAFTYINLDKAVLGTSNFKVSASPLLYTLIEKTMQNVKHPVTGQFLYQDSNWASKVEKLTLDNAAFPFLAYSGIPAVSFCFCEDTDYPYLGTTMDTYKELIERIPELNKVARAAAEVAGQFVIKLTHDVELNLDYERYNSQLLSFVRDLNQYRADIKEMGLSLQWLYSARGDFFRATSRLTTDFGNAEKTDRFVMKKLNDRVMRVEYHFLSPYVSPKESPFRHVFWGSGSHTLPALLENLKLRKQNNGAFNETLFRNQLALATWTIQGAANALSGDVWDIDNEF

| Substance | Kd [nM] |
| --- | --- |
| AB-AH1-huHF (from UniProt P02794 1-183) | 10.9 |
| AB-gp100-huHF (from UniProt P02794 1-183) | 29.7 |
| BC-AH1-huHF (from UniProt P02794 1-183) | 107 |
| CD-AH1-huHF (from UniProt P02794 1-183) | 3.45 |
| CD-gp100-huHF (from UniProt P02794 1-183) | 4.89 |
| DE-AH1-huHF (from UniProt P02794 1-183) | 6.11 |
